Source: PMC3410417 (The Journal of Cell Biology, 2012)

Biological target: Myc-mGlu5a-Rluc8 (UniProt P31424-2 21-1171)
Assay: FRET or BRET

BRET ratio in the spine before TAT-Homer1a (% of mean BRET in the shaft): 364%
B1: YFP-Homer3 (natural protein, UniProt Q9Z2X5 1-358, looked up)
chain: MSTAREQPIFSTRAHVFQIDPATKRNWIPAGKHALTVSYFYDATRNVYRIISIGGAKAIINSTVTPNMTFTKTSQKFGQWADSRANTVYGLGFGSEQQLTQFAEKFQEVKEAARLAREKSQDGGELTSTALAMASHQVPPSPLVSTNGPEEKLFRSQSADAPGPTERERLKKMLSEGSVGEVQWEAEFFALQDSNQRLAGALREANAAATQWRQQLEVQRAEAEHLRQRVAELEAQVAAEPVRAGEKEATSQSVEQLEARVQTKDQEIQTLKNQSTGPREAPDTAEREETQQQVQDLETRNAELEQQLRAMESNLEEARAERERARAEVGRAAQLLDVRLFELSELREGLARLAEAAP
